Laboratory results taken from patent publication US20250171562A1 (ALK ABELL, published 2025).

Biological target: T1, recombinant human IgE (human, UniProt P01854-1 1-428)
T1 construct: made in-house (ALK); preloaded on immobilised FcεRIα in the displacement ELISA
Assay: IgE-FcεRIα displacement ELISA
Outline: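 Streptavidin-coated plates carried site-specifically biotinylated recombinant human FcεRIα, loaded with recombinant human IgE at 13 ng/ml. sdAbs in a pM–μM series were added for 1 h, and displaced IgE was washed off. Percent displacement was the signal reduction versus the no-sdAb control, giving EC50 and maximal effect.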

T1 sequence (P01854 other isoform, or with tags, fused parts or gaps): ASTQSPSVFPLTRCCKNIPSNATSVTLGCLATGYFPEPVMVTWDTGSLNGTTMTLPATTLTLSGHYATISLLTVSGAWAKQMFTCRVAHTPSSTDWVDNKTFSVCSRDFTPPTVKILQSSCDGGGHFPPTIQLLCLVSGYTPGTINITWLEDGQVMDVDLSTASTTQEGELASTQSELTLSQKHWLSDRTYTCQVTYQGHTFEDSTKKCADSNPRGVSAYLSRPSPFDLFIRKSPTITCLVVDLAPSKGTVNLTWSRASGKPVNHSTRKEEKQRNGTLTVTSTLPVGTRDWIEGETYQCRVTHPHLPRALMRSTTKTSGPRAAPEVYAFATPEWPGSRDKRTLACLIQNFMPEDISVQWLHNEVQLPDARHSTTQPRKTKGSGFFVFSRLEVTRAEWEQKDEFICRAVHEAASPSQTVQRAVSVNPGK

Row | EC50 [nM] | Max effect [%] | Binder
1 | 4.8 | > 95 | CIgG4D2A1(G4S)3 (Fc fusion) chain 1: GPPCPPCPAPEFLGGPSVFLFPPKPKDTLMISRTPEVTCVVVDVSQEDPEVQFNWYVDGVEVHNAKTKPREEQFNSTYRVVSVLTVLHQDWLNGKEYKCKVSNKGLPSSIEKTISKAKGQPREPQVYTLPPCQEEMTKNQVSLWCLVKGFYPSDIAVEWESNGQPENNYKTTPPVLDSDGSFFLYSRLTVDKSRWQEGNVFSCSVMHEALHNHYTQKSLSLSLGKGGGGSGGGGSGGGGSDVQLQESGGGLVEAGGSLRLSCVASGRTFSGWSMGWFRQAPGKEREFVAAISWVGSWIGGTVYSNSVKGRFTISRDNARTTVYLQMNSLKPEDTAVYFCAAANSETPRIFASEYDYWGQGTQVTVS chain 2: GPPCPPCPAPEFLGGPSVFLFPPKPKDTLMISRTPEVTCVVVDVSQEDPEVQFNWYVDGVEVHNAKTKPREEQFNSTYRVVSVLTVLHQDWLNGKEYKCKVSNKGLPSSIEKTISKAKGQPREPQVCTLPPSQEEMTKNQVSLSCAVKGFYPSDIAVEWESNGQPENNYKTTPPVLDSDGSFFLVSRLTVDKSRWQEGNVFSCSVMHEALHNHYTQKSLSLSLGKGGGGSGGGGSGGGGSEVQLLESGGGLVQPGGSLRLSCAASGFTFGNYDMAWVRQAPGKRPEWVSSIDTGGDITHYADSVKGRFTISRDNAKNTLYLQMNSLRPEDTAVYWCATDEEYALGPNEFDYYGQGTLVTVSS
2 | 7 | > 95 | CIgG4D2A1(G4S)2 (Fc fusion) chain 1: GPPCPPCPAPEFLGGPSVFLFPPKPKDTLMISRTPEVTCVVVDVSQEDPEVQFNWYVDGVEVHNAKTKPREEQFNSTYRVVSVLTVLHQDWLNGKEYKCKVSNKGLPSSIEKTISKAKGQPREPQVYTLPPCQEEMTKNQVSLWCLVKGFYPSDIAVEWESNGQPENNYKTTPPVLDSDGSFFLYSRLTVDKSRWQEGNVFSCSVMHEALHNHYTQKSLSLSLGKGGGGSGGGGSDVQLQESGGGLVEAGGSLRLSCVASGRTFSGWSMGWFRQAPGKEREFVAAISWVGSWIGGTVYSNSVKGRFTISRDNARTTVYLQMNSLKPEDTAVYFCAAANSETPRIFASEYDYWGQGTQVTVS chain 2: GPPCPPCPAPEFLGGPSVFLFPPKPKDTLMISRTPEVTCVVVDVSQEDPEVQFNWYVDGVEVHNAKTKPREEQFNSTYRVVSVLTVLHQDWLNGKEYKCKVSNKGLPSSIEKTISKAKGQPREPQVCTLPPSQEEMTKNQVSLSCAVKGFYPSDIAVEWESNGQPENNYKTTPPVLDSDGSFFLVSRLTVDKSRWQEGNVFSCSVMHEALHNHYTQKSLSLSLGKGGGGSGGGGSEVQLLESGGGLVQPGGSLRLSCAASGFTFGNYDMAWVRQAPGKRPEWVSSIDTGGDITHYADSVKGRFTISRDNAKNTLYLQMNSLRPEDTAVYWCATDEEYALGPNEFDYYGQGTLVTVSS
3 | 25 | > 95 | CIgG4D2A1(G4S)1 (Fc fusion) chain 1: GPPCPPCPAPEFLGGPSVFLFPPKPKDTLMISRTPEVTCVVVDVSQEDPEVQFNWYVDGVEVHNAKTKPREEQFNSTYRVVSVLTVLHQDWLNGKEYKCKVSNKGLPSSIEKTISKAKGQPREPQVYTLPPCQEEMTKNQVSLWCLVKGFYPSDIAVEWESNGQPENNYKTTPPVLDSDGSFFLYSRLTVDKSRWQEGNVFSCSVMHEALHNHYTQKSLSLSLGKGGGGSDVQLQESGGGLVEAGGSLRLSCVASGRTFSGWSMGWFRQAPGKEREFVAAISWVGSWIGGTVYSNSVKGRFTISRDNARTTVYLQMNSLKPEDTAVYFCAAANSETPRIFASEYDYWGQGTQVTVS chain 2: GPPCPPCPAPEFLGGPSVFLFPPKPKDTLMISRTPEVTCVVVDVSQEDPEVQFNWYVDGVEVHNAKTKPREEQFNSTYRVVSVLTVLHQDWLNGKEYKCKVSNKGLPSSIEKTISKAKGQPREPQVCTLPPSQEEMTKNQVSLSCAVKGFYPSDIAVEWESNGQPENNYKTTPPVLDSDGSFFLVSRLTVDKSRWQEGNVFSCSVMHEALHNHYTQKSLSLSLGKGGGGSEVQLLESGGGLVQPGGSLRLSCAASGFTFGNYDMAWVRQAPGKRPEWVSSIDTGGDITHYADSVKGRFTISRDNAKNTLYLQMNSLRPEDTAVYWCATDEEYALGPNEFDYYGQGTLVTVSS
